The values below come from publication PMC3137072.

In test [1] the target is filamentous actin (F-actin), non-muscle actin (UniProt P60709).
In test [2] the target is microtubules (polymerized tubulin) (UniProt Q6B856).
Sequence of microtubules (polymerized tubulin) (Q6B856 whole entry, looked up): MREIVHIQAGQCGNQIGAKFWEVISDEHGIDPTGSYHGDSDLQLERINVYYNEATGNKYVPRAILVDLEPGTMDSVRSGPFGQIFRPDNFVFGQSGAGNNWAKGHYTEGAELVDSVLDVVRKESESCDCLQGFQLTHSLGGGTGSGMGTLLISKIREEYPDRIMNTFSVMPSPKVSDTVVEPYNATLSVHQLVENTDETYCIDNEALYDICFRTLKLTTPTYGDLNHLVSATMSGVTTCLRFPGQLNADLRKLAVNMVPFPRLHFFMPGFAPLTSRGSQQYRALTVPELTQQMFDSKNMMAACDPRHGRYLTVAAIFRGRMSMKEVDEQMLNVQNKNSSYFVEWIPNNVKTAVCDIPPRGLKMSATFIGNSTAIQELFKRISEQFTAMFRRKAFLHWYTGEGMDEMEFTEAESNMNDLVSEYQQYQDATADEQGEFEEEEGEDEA

Sequence of G2L3-CH (calponin homology domain of GAS2-like 3) (Q86XJ1 48-168): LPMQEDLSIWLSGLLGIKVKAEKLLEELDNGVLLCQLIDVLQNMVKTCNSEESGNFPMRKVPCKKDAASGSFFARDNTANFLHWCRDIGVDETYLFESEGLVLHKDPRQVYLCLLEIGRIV
Sequence of G2L3-ΔGAR (GAS2-like 3 lacking the GAR domain), GFP-tagged (Q86XJ1 whole entry, stated change not applied, the tested form may be a part): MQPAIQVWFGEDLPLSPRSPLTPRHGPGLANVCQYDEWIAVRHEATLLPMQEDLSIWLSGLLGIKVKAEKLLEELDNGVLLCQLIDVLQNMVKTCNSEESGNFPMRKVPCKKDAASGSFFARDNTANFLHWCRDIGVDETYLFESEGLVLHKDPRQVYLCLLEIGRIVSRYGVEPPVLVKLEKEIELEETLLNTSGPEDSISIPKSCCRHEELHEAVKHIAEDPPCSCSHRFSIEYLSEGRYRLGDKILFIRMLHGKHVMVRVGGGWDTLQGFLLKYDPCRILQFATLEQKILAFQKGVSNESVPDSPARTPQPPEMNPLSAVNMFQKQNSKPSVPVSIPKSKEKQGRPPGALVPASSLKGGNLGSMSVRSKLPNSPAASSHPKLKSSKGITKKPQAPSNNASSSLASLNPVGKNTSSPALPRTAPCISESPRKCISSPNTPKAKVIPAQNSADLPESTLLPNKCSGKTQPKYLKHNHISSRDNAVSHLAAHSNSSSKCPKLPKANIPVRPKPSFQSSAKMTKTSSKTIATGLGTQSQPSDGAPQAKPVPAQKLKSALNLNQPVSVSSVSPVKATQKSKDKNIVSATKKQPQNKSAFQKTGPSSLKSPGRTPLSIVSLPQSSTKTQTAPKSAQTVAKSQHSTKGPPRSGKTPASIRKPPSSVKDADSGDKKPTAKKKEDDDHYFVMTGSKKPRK

As for “G2L3-CH (calponin homology domain of GAS2-like 3) (from UniProt Q86XJ1 48-168) (domain or fragment)”, the FRAP, t½ of recovery of GFP-tagged G2L3-CH on actin filaments in NIH3T3 cells in test [1] is 28.5 s.
“G2L3-ΔGAR (GAS2-like 3 lacking the GAR domain), GFP-tagged (from UniProt Q86XJ1 1-694) (natural protein)” yielded an FRAP, t½ of recovery of GFP-tagged G2L3-ΔGAR on MTs in NIH3T3 cells in test [2] of 6 s.
“G2L3-ΔCH (GAS2-like 3 lacking the CH domain), GFP-tagged (domain or fragment)” returned an FRAP, t½ of recovery of GFP-tagged G2L3-ΔCH on MTs in NIH3T3 cells in test [2] of 15.3 s.
Consider “G2L3-C-term (C terminus of GAS2-like 3) (domain or fragment)”, for which the FRAP, t½ of recovery of GFP-tagged G2L3-C-term on MTs in NIH3T3 cells in test [2] came to 3.9 s.
